Results as given in US20050153395A1 (CHILDREN S HOSPITAL, published 2005).
Positions count from the first letter of the chain named. Numbers in names are those of the source.

B1: CTGF4 mutant M1 (I257A, R258A, T259A, P260A) (ligand)
chain: EENIKKGKKCAAAAKISKPIKFELSGCTSMKTYRAKFCGVCTDGRCCTPHRTTTLPVEFKCPDGEVMKKNMMFIKTCACHYNCPGDNDIFESLYYRKMYGDMA
B2: CTGF4 mutant M3 (P265A, I266A, K267A, F268A) (ligand)
chain: B1 chain with A11I, A12R, A13T, A14P, P19A, I20A, K21A, F22A
B3: CTGF4 mutant M4 (E269A, L270A, S271A, G272A) (ligand)
chain: B1 chain with A11I, A12R, A13T, A14P, E23A, L24A, S25A, G26A

molecular target: integrin αvβ3 on activated rat hepatic stellate cells (HSC) (rat, UniProt Q8R2H2 26-787); assay: cell-based or functional assay
Sequence (Q8R2H2 26-787): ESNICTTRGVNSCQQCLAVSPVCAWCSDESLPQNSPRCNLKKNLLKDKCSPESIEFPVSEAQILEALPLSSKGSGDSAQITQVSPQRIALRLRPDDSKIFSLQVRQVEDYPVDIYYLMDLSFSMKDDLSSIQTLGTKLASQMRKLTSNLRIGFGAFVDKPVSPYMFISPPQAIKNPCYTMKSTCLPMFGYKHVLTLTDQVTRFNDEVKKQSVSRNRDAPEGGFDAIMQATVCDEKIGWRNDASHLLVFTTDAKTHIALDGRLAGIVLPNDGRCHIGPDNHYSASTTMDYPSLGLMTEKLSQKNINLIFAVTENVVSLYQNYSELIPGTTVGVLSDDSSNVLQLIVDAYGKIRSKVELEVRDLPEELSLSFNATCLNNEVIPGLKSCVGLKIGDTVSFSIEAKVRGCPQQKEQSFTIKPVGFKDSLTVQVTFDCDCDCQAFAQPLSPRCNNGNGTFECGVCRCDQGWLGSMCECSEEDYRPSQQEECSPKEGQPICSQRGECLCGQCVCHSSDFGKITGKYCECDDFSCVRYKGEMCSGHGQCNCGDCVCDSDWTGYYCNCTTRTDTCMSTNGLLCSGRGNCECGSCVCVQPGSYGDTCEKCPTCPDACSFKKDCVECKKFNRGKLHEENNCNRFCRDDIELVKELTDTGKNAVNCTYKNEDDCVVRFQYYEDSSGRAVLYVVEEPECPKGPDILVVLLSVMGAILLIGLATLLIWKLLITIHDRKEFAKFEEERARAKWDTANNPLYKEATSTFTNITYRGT

HSC adhesion, level relative to wild-type CTGF4 [%]	Binder
33	B1
80	B2
46	B3
